The text below walks through data of US20240350653A1 (JOINT STOCK COMPANY GENERIUM, published 2024).

Assay [1] deals with Human Insulin Receptor protein fragment (Abcam cat #ab200510) (human) (UniProt P06213). The assay is described as follows: ELISA on human insulin receptor fragment, relative to 83-14 mAb.
Assay [2] has as its target mouse insulin receptor (mInsR, R&D Systems, Inc., Cat. No. 7544-MR) (mouse) (UniProt P15208). As to the kind of experiment: ELISA on mouse insulin receptor.
The target of assay [3] is Human Insulin Receptor protein fragment (Abcam cat #ab200510) (human) (UniProt P06213). The assay is described as follows: ELISA on human insulin receptor fragment.

Substance “Mouse Anti-Human Insulin Receptor Clone 83-14 mAb (Cell sciences, cat# MAI1) (antibody)” gave a Receptor binding from antibody 83-14 mAb, % in assay [1] of 100%. Also, the concentration for a half-maximal effect (EC50) in assay [2] was above 0.8 µg/mL; in assay [3], 0.0331 µg/mL.
